From paper PMC3740164 (Developmental cell, 2013) come the findings set out here.

In this experiment the target is full-length His6-PIPKIγi5 (human, UniProt O60331-3 1-707). Briefly: pull-down.

B1: GST-SNX5 (natural protein, UniProt Q9Y5X3 1-404, looked up)
chain: MAAVPELLQQQEEDRSKLRSVSVDLNVDPSLQIDIPDALSERDKVKFTVHTKTTLPTFQSPEFSVTRQHEDFVWLHDTLIETTDYAGLIIPPAPTKPDFDGPREKMQKLGEGEGSMTKEEFAKMKQELEAEYLAVFKKTVSSHEVFLQRLSSHPVLSKDRNFHVFLEYDQDLSVRRKNTKEMFGGFFKSVVKSADEVLFTGVKEVDDFFEQEKNFLINYYNRIKDSCVKADKMTRSHKNVADDYIHTAACLHSLALEEPTVIKKYLLKVAELFEKLRKVEGRVSSDEDLKLTELLRYYMLNIEAAKDLLYRRTKALIDYENSNKALDKARLKSKDVKLAEAHQQECCQKFEQLSESAKEELINFKRKRVAAFRKNLIEMSELEIKHARNNVSLLQSCIDLFKNN
In the case of B1, the binding result is “binds”.
